The values below come from patent US20050266469.

This data set deals with T1, peptide derived from the known CHK1 kinase substrate CDC25C (GLYRSPSMPENLNR).
T1 chain: GLYRSPSMPENLNR

B1: CHK1sv1-His-tagged protein (protein)
chain: MAVPFVEDWDLVQTLGEGAYGEVQLAVNRVTEEAVAVKIVDMKRAVDCPENIKKEICINKMLNHENVVKFYGHRREGNIQYLFLEYCSGGELFDRIEPDIGMPEPDAQRFFHQLMAGVVYLHGIGITHRDIKPENLLLDERDNLKISDFGLATVFRYNNRERLLNKMCGTLPYVAPELLKRREFHAEPVDVWSCGIVLTAMLAGELPWDQPSDSCQEYSDWKEKKTYLNPWKKIDSAPLALLHKILVENPSARITIPDIKKDRWYNKPLKKGAKRPRVTSGGVSESPSGFSKHIQSNLDFSPVNSASRTPGSGWSKEHHHHHH
In the case of B1, the “Km (CDC25C substrate)” value is listed as 120 µM and the Vmax is recorded as 36 nmol/min/µg.
